B1: Regulator of G-protein signaling 2 (Homo sapiens), P41220-1 (parent)
chain: MQSAMFLAVQHDCRPMDKSAGSGHKSEEKREKMKRTLLKDWKTRLSYFLQNSSTPGKPKTGKKSKQQAFIKPSPEEAQLWSEAFDELLASKYGLAAFRAFLKSEFCEENIEFWLACEDFKKTKSPQKLSSKARKIYTDFIEKEAPKEINIDFQTKTLIAQNIQEATSGCFTTAQKRVYSLMENNSYPRFLESEFYQDLCKKPQITTEPHAT
partner: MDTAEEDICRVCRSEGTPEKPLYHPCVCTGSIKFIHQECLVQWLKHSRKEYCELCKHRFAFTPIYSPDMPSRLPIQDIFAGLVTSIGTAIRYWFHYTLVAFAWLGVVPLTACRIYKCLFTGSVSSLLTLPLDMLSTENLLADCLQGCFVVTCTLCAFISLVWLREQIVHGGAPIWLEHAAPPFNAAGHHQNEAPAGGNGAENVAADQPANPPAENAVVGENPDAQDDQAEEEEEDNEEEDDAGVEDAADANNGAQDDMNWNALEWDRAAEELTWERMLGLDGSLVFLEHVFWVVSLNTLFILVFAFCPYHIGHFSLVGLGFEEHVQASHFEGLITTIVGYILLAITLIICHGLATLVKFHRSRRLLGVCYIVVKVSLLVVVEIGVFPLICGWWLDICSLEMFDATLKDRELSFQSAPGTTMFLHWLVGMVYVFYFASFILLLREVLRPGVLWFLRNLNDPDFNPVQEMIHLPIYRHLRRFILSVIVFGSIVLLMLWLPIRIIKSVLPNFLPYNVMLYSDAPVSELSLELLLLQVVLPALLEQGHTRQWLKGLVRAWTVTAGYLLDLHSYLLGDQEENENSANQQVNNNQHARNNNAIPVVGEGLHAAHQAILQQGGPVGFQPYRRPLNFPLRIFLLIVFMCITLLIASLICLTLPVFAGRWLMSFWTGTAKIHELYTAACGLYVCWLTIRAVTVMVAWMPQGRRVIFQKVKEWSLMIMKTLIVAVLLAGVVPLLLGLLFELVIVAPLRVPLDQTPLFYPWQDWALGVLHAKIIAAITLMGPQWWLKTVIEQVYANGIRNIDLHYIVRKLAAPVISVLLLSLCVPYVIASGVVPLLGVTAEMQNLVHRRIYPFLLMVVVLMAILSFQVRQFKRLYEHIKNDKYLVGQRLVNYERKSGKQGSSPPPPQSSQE

The assay covers variants of B1. The settings on record: with marh6_human MARCHF6, O60337.
In the case of M1P, the “effect of a mutation on the interaction” value was “disrupting interaction strength”.
